The values that follow come from patent publication US20190022245A1 (ACADEMIA SINICA, published 2019).

Experiment [1] deals with T1, human epidermal growth factor receptor (HER2) on cells (human, UniProt P04626 23-1255).
T1 construct: whole, on cells; also called HER2/Neu; Her2/neu
The experiment in a line: flow cytometry on BT-474 cells. On the technique in general: In flow cytometry, cells or beads pass a laser one at a time.

The target of experiment [2] is T1, human epidermal growth factor receptor …. The experiment in a line: culture medium on BT-474 cells (HER2 positive), FITC anti-human Ig. As for the experimental part: (§1) The binding specificity of monovalent BsAbs with their target proteins was measured by collecting the culture medium of BsAbs producing cells, adding the collected medium to cells that expressed the target protein, then determining the binding by […]. After washing the cells, the bound BsAbs were detected by FITC-labeled goat anti-human immunoglobulin second antibody. […] Thus, monovalent anti-PEG (hE11) BsAbs bound to target cells in an antigen-dependent and selective manner.

Experiment [3] has as its target T2, epidermal growth factor receptor (EGFR) on cells (human (on human cell lines), UniProt P00533 25-1210).
T2 construct: whole, on cells
The experiment in a line: culture medium on MDA-MB-468 cells (EGFR positive), FITC anti-human Ig. As for the experimental part:
as §1

Experiment [4] concerns the target T1, human epidermal growth factor receptor …. Briefly: flow cytometry, 10 µg/ml BsAb, FITC anti-human IgG; also methoxy-PEG Qdot 655 retained at SKBR3 cells.
For experiment [5] the target is unchanged. The experiment in a line: flow cytometry on SKBR3 cells (HER2+), FITC anti-human IgG.
For experiment [6], the target named is T3, BSA (control protein coated on ELISA plates) (UniProt P02769 25-607).
T3 construct: also called control BSA protein
The experiment in a line: ELISA, BSA-coated plate, graded concentrations. Here is the method: The anti-PEG binding specificity of BsAbs was measured by adding graded concentrations of PEG2×TAG72,PEG2×DNS, hCC49 scFv, h6.3Fab×EGFR or h6.3Fab×CD19 in 50 μL 2% skim milk to the mucin, BSA-PEG5000, NH₂-PEG₃ₖ-NH₂ or BSA coated plates at RT for 1 h. The plates were washed with PBS-T (PBS containing 0.05% Tween-20) three times. Rabbit anti-6×His (2 μg/mL) supplemented with HRP-conjugated goat anti-rabbit (2 μg/mL) or HRP-conjugated goat Ig anti human IgG Fab (2 μg/mL) (Jackson ImmunoResearch Laboratories, West Grove, Pa.) in 50 μL dilution buffer were added for 1 h at room temperature. The plates were washed with PBS-T (PBS containing 0.05% Tween-20) three times and with PBS two times. Bound peroxidase activity was measured by adding 150 μL/well ABTS substrate solution (BioLegend, San Diego, Calif.) for 30 min at room temperature. The absorbance (405 nm) of wells was measured in a microplate reader (Molecular Device, Menlo Park, Calif.).
Further, both h6-3Fab×EGFR and h6.3Fab×CD19 BsAbs bound to the NH₂-PEG_{10,000}-NH2, but not to the control BSA protein, indicating their binding specificity toward PEG molecule (FIGS. 14A and 14B). […] The PEG-binding kinetics of h6-3Fab×EGFR and h6.3Fab×CD19 BsAbs were verified by Microscale Thermophoresis (MST) (FIGS. 14D and 14E).
On the technique in general: In an ELISA, binding on a coated surface is turned into a signal by an enzyme label.

Experiment [7] has as its target T2, epidermal growth factor receptor (EGFR) …. Briefly: flow cytometry, BsAb on A431 cells then PEG-liposome Texas Red or PEG-Qdot655. As for the experimental part:
PEG2×TAG72 or control PEG2×DNS BsAbs (10 μg/mL) were incubated with A-375(TAG72-), MCF-7(TAG72+), Jurkat (TAG72+) or OVCAR-3(TAG72+) cells at 4° C. for 30 min followed by FITC-labeled goat anti-human immunoglobulin second antibody (2 μg/m L) (Jackson ImmunoResearch Laboratories, West Grove, Pa.) or FITC-labeled 4arm-PEG (2 μg/mL). Tumor-specific targeting of PEGylated compounds was also examined by staining A431 (EGFR^high), and Raji (CD19^high) cell lines with 10 μg/mL of h6.3Fab×EGFR or h6.3Fab×CD19 BsAbs in PBS containing 0.05% BSA (staining buffer) at 4° C. for 30 min. The cells were washed with cold PBS for 3 times. PEG-Qdot655 (8 nM) (Invitrogen, Grand Island, N.Y.) or PEG-liposomal Texas-Red (100 nm size, 50 μM, lipid conc.) (FormuMax Scientific, Palo Alto, Calif.) in staining buffer was added to cells for 30 min at 4° C. […] After washing with cold PBS, the surface fluorescence of 10⁴ viable cells was measured by FACScaliber flow cytometer (Becton Dickinson, Mountain View, Calif., USA) then analyzed with Flowjo (Tree Star Inc., San Carlos, Calif., USA).
Further, both h6-3Fab×EGFR and h6.3Fab×CD19 BsAbs bound to the NH₂-PEG_{10,000}-NH2, but not to the control BSA protein, indicating their binding specificity toward PEG molecule (FIGS. 14A and 14B). […]

T3 sequence (P02769 25-607 limits assumed): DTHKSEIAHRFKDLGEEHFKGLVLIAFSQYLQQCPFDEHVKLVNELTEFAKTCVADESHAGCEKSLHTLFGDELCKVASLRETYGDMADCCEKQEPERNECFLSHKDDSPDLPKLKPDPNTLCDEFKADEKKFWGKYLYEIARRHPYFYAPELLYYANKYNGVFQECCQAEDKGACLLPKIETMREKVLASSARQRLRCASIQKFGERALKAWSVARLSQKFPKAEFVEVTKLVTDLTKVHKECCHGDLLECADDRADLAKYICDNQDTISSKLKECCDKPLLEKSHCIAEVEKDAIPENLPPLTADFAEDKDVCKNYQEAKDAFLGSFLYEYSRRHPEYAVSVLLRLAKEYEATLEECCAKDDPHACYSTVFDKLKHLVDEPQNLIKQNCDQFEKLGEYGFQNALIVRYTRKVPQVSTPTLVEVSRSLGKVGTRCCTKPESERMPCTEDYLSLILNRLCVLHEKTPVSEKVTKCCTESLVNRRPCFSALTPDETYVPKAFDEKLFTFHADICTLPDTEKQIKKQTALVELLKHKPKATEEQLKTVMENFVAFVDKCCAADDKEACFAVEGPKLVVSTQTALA

B1: PEG2×HER2 (dimeric humanized anti-PEG (hE11) anti-HER2 BsAb) (bispecific antibody, human IgG1, kappa)
light: DVVMTQSPLSLPVTLGQPASISCRSSKSIVHSNGNTYLEWFQQRPGQSPRRLIYKVSKRMSGVPDRFSGSGSGTDFTLKISRVEAEDVGVYYCSQGSHVPPTFGGGTKVEIKRTVAAPSVFIFPPSDEQLKSGTASVVCLLNNFYPREAKVQWKVDNALQSGNSQESVTEQDSKDSTYSLSSTLTLSKADYEKHKLYACEVTHQGLSSPVTKSFNRGEC
heavy: not shown
notes: also called PEG2×HER2 BsAbs
Turning to B1, in experiment [1], the binding result is “binds”.

B2: PEGxTAG72 (monovalent anti-PEG (hE11) Fab fused to anti-TAG72 scFv, example 2.1) (bispecific antibody)
light: DVVMTQSPLSLPVTLGQPASISCRSSKSIVHSNGNTYLEWFQQRPGQSPRRLIYKVSKRMSGVPDRFSGSGSGTDFTLKISRVEAEDVGVYYCSQGSHVPPTFGGGTKVEIKRTVAAPSVFIFPPSDEQLKSGTASVVCLLNNFYPREAKVQWKVDNALQSGNSQESVTEQDSKDSTYSLSSTLTLSKADYEKHKLYACEVTHQGLSSPVTKSFNRGEC
heavy: QVQLVQSGAEVKKPGASVKVSCKASGYTFTTYTMNWVRQAPGQGLEWMGYIIPSSGYVDYNQKFKGRVTMTRDTSTSTVYMELSSLRSEDTAVYYCVRSLDGYFWFAYWGQGTLVTVSSASTKGPSVFPLAPSSKSTSGGTAALGCLVKDYFPEPVTVSWNSGALTSGVHTFPAVLQSSGLYSLSSVVTVPSSSLGTQTYICNVNHKPSNTKVDKRVVDLVTVSSASTGGGSGQLGGGGSQVQLVQSGAEVKKPGASVKVSCKASGYTFTDHAIHWVRQAPGQCLEWMGYFSPGNDDFKYSQKFQGRVTITADKSASTAYMELSSLRSEDTAVYYCARSWIMQYWGQGTLVTVSSGGGGSGGGGSGGGGSDIVMTQSPDSLAVSLGERATINCKSSQSVLYSSNNKNYLAWYQQKPGQPPKLLIYWASTRESGVPDRFSGSGSGTDFTLTISSLQAEDVAVYYCQQYYSYPLTFGCGTKVEIKTRHHHHHH
notes: Tested as culture medium of producer cells; also called PEG×TAG72; monovalent anti-PEG (hE11) BsAb
With B2, the binding result in experiment [2] and in experiment [3] was “no binding” in each case.

B3: 15-2b knob/anti-HER2 hole (knob in hole anti-mPEG (h15-2b) anti-HER2 BsAb) (bispecific antibody)
light 1: DIQMTQSPSSLSASVGDRVTITCKASQDVNTSVAWYQQKPGKAPKLLIYWASTRHTGVPSRFSGSGSGTDFTFTISSLQPEDIATYYCLQYINYPYTFGQGTKLEIKRTVAAPSVFIFPPSDEQLKSGTASVVCLLNNFYPREAKVQWKVDNALQSGNSQESVTEQDSKDSTYSLSSTLTLSKADYEKHKLYACEVTHQGLSSPVTKSFNRGEC
heavy 1: not shown
light 2: QSVLTQPPSVSAAPGQKVTISCSGSSSNIGNNYVSWYQQLPGTAPKLLIYDHTNRPAGVPDRFSGSKSGTSASLAISGFRSEDEADYYCASWDYTLSGWVFGGGTKLTVLGSSASTKGPSVFPLAPSSKSTSGGTAALGCLVKDYFPEPVTVSWNSGALTSGVHTFPAVLQSSGLYSLSSVVTVPSSSLGTQTYICNVNHKPSNTKVDKKV
heavy 2: not shown
notes: Four different chains; also called h15-2b-knob/anti-HER2-hole; h15-2b-knob/anti-Her2-hole; not shown: HA tag fused at the N terminal of the hole heavy chain
Turning to B3, in experiment [4], the binding result was “binds”.

B4: 15-2b knob/Bu12 hole (knob in hole anti-mPEG (h15-2b) anti-CD19 BsAb) (bispecific antibody)
light 1: DIQMTQSPSSLSASVGDRVTITCKASQDVNTSVAWYQQKPGKAPKLLIYWASTRHTGVPSRFSGSGSGTDFTFTISSLQPEDIATYYCLQYINYPYTFGQGTKLEIKRTVAAPSVFIFPPSDEQLKSGTASVVCLLNNFYPREAKVQWKVDNALQSGNSQESVTEQDSKDSTYSLSSTLTLSKADYEKHKLYACEVTHQGLSSPVTKSFNRGEC
heavy 1: not shown
light 2: EIVLTQSPATLSLSPGERATLSCSASSSVSYMHWYQQKPGQAPRLLIYDTSKLASGIPARFSGSGSGTDFTLTISSLEPEDVAVYYCFQGSVYPFTFGQGTKLEIKRSSASTKGPSVFPLAPSSKSTSGGTAALGCLVKDYFPEPVTVSWNSGALTSGVHTFPAVLQSSGLYSLSSVVTVPSSSLGTQTYICNVNHKPSNTKVDKKV
heavy 2: not shown
notes: Four different chains; also called h15-2b-knob/BU12-hole; h15-2b knob+BU12-hole; not shown: HA tag fused at the N terminal of the hole heavy chain
With B4, in experiment [5], the binding result was “no binding (tested: 10 µg/ml)”.

B5: h6.3 Fab × CD19 (monovalent anti-PEG (h6.3) anti-CD19 BsAb) (bispecific antibody)
light: DIVMTQSPDSLAVSLGERATINCKSSQSVLYSSNQMNYLAWYQQKPGQPPKLLIYWASTRESGVPDRFSGSGSGTDFTLTISSLQAEDVAVYYCLQYLSSWTFGGGTKLEIKTYSLSSTLTLSKADYEKHKLYACEVTHQGLSSPVTKSFNRGEC
heavy: QVQLVQSGSELKKPGASVKVSCKASGYTFKNYGMNWVRQAPGQGLEWMGWINTYTGQPIYANDFKGRFVFSLDTSVSTAYLQISSLKAEDTAVYYCARDWGPYWGQGTLVTVSSASTKGPSVFPLAPSSKSTSGGTAALGCLVKDYFPEPVTVSWNSGALTSGVHTFPAVLQSSGLYSLSSVVTVPSSSLGTQTYICNVNHKPSNTKVDKRVEPKSCDKVDLVTVSSASTGGGSGQLGGGGSQVQLQESGPGLVKPSQTLSLTCTVSGGSISTSGMGVGWIRQHPGKCLEWIGHIWWDDDKRYNPALKSRVTISVDTSKNQFSLKLSSVTAADTAVYYCARMELWSYYFDYWGQGTLVTVSSGGGGSGGGGSGGGGSEIVLTQSPATLSLSPGERATLSCSASSSVSYMHWYQQKPGQAPRLLIYDTSKLASGIPARFSGSGSGTDFTLTISSLEPEDVAVYYCFQGSVYPFTFGCGTKLEIKRTRHHHHHH
notes: Fab-dsFv; also called h6.3-hBU12
B5: the binding result in experiment [6] is “no binding”; in experiment [7], “no binding (tested: 10 µg/mL)”.
